From doi:10.64898/2025.12.15.693380 (bioRxiv, 2025) come the findings set out here.

The data set concerns the molecule itself. As to the kind of experiment: cryo-EM structure.

B1: full-length human NCBE (Na+-dependent Cl-/HCO3- exchanger, SLC4A10) (natural protein, UniProt Q6U841 1-1118, looked up)
chain: MEIKDQGAQMEPLLPTRNDEEAVVDRGGTRSILKTHFEKEDLEGHRTLFIGVHVPLGGRKSHRRHRHRGHKHRKRDRERDSGLEDGRESPSFDTPSQRVQFILGTEDDDEEHIPHDLFTELDEICWREGEDAEWRETARWLKFEEDVEDGGERWSKPYVATLSLHSLFELRSCILNGTVLLDMHANTLEEIADMVLDQQVSSGQLNEDVRHRVHEALMKQHHHQNQKKLTNRIPIVRSFADIGKKQSEPNSMDKNAGQVVSPQSAPACVENKNDVSRENSTVDFSKGLGGQQKGHTSPCGMKQRHEKGPPHQQEREVDLHFMKKIPPGAEASNILVGELEFLDRTVVAFVRLSPAVLLQGLAEVPIPTRFLFILLGPLGKGQQYHEIGRSIATLMTDEVFHDVAYKAKDRNDLVSGIDEFLDQVTVLPPGEWDPSIRIEPPKNVPSQEKRKIPAVPNGTAAHGEAEPHGGHSGPELQRTGRIFGGLILDIKRKAPYFWSDFRDAFSLQCLASFLFLYCACMSPVITFGGLLGEATEGRISAIESLFGASMTGIAYSLFGGQPLTILGSTGPVLVFEKILFKFCKEYGLSYLSLRASIGLWTATLCIILVATDASSLVCYITRFTEEAFASLICIIFIYEALEKLFELSEAYPINMHNDLELLTQYSCNCVEPHNPSNGTLKEWRESNISASDIIWENLTVSECKSLHGEYVGRACGHDHPYVPDVLFWSVILFFSTVTLSATLKQFKTSRYFPTKVRSIVSDFAVFLTILCMVLIDYAIGIPSPKLQVPSVFKPTRDDRGWFVTPLGPNPWWTVIAAIIPALLCTILIFMDQQITAVIINRKEHKLKKGCGYHLDLLMVAVMLGVCSIMGLPWFVAATVLSITHVNSLKLESECSAPGEQPKFLGIREQRVTGLMIFILMGSSVFMTSILKFIPMPVLYGVFLYMGASSLKGIQFFDRIKLFWMPAKHQPDFIYLRHVPLRKVHLFTIIQMSCLGLLWIIKVSRAAIVFPMMVLALVFVRKLMDLLFTKRELSWLDDLMPESKKKKLEDAEKEEEQSMLAMEDEGTVQLPLEGHYRDDPSVINISDEMSKTALWRNLLITADNSKDKESSFPSKSSPS
As for B1, the “stoichiometry N” value amounted to 2.
